Tests used:
[1] = target: T1, human cadherin-17 (CDH17), endogenously expressed on human cancer cell lines (LS513, SNU-C1, PaTu8988s, … (human, UniProt Q12864 23-832)); test: KinExA, cell-based, SNUC1 cells
T1 construct: also called LS513 (Colon, CDH17+); HPAF2

[2] = target: T2, recombinant CDH17 extracellular domain (ECD) with 6x His tag (human, UniProt Q12864 23-787); test: ELISA on recombinant CDH17 ECD-6xHis
T2 construct: also called Recombinant CDH17 ECD-6xhis tag

[3] = target: T1, human cadherin-17 (CDH17), endogenously …; test: flow cytometry (iQue) on LS513 cells, 1 µg Ab
[4] = target: T1, human cadherin-17 (CDH17), endogenously …; test: flow cytometry (iQue) on SNUC1 cells, 1 µg Ab
[5] = target: T3, human CDH17-mGFP fusion protein overexpressed on HEK293T cells (clone G11) (human, UniProt Q12864 23-832); test: KinExA, cell-based, HEK293T CDH17mGFP clone G11
T3 construct: also called HEK293T CDH17mGFP Clone G11; HEK293T Human CDH17mGFP G11; not shown: mGFP fluorescent protein fused to CDH17
Description: (§1) The cell-based antibody affinity (KD) of the anti-CDH17 antibodies was measured by KinExA 4000 (Sapidyne Instrument, Boise, Idaho). Briefly, HEK293T overexpressing CDH17-fluorescent protein fusion (i.e., human CDH17-mGFP, monkey CDH17-mGFP, mouse CDH17-mGFP or rat CDH17-mGFP) were detached with Versene and equilibrated with either 50 pM, 200 pM, 20 nM, or 50 nM antibody in 2% FBS/DMEM at 4° C. overnight. The cell concentration started at 5×10⁶ cells/mL or 1×10⁷ cells/mL and 2-fold serial dilutions were performed up to 10 points. The next day, the cells were centrifuged at 1500 rpm for 10 min and the supernatants were saved. […] In contrast, while the humanized anti-CDH17 antibody, 07-0653-h43, fails to bind mouse CDH17 protein, it binds rat CDH17 protein equally well as to human and monkey CDH17 protein such that its Kp is less than about 1 nM for human, monkey and rat CDH17 proteins with overlapping 95% confidence interval values.

[6] = target: T1, human cadherin-17 (CDH17), endogenously …; test: flow cytometry (iQue) on LS513 cells, 0.2 µg Ab
[7] = target: T1, human cadherin-17 (CDH17), endogenously …; test: flow cytometry (iQue) on SNUC1 cells, 0.2 µg Ab
[8] = target: T1, human cadherin-17 (CDH17), endogenously …; test: flow cytometry on LS513 cells (CDH17+), 20 µg/ml
[9] = target: T1, human cadherin-17 (CDH17), endogenously …; test: flow cytometry (iQue) on PATU8988S cells, 1 µg Ab
[10] = target: T1, human cadherin-17 (CDH17), endogenously …; test: flow cytometry (iQue) on PATU8988S cells, 0.2 µg Ab
[11] = target: T3, human CDH17-mGFP fusion protein …; test: flow cytometry on HEK293T human CDH17mGFP G11, 20 µg/ml
[12] = target: T4, rat CDH17 fused to moxGFP, overexpressed on HEK293T cells (rat, UniProt P55281 22-827); test: KinExA, cell-based, HEK293T rat CDH17mGFP mass population
T4 construct: whole, on cells; also called HEK293T Rat CDH17mGFP mass pop; rat CDH17-moxGFP
T4 sequence (P55281 22-827): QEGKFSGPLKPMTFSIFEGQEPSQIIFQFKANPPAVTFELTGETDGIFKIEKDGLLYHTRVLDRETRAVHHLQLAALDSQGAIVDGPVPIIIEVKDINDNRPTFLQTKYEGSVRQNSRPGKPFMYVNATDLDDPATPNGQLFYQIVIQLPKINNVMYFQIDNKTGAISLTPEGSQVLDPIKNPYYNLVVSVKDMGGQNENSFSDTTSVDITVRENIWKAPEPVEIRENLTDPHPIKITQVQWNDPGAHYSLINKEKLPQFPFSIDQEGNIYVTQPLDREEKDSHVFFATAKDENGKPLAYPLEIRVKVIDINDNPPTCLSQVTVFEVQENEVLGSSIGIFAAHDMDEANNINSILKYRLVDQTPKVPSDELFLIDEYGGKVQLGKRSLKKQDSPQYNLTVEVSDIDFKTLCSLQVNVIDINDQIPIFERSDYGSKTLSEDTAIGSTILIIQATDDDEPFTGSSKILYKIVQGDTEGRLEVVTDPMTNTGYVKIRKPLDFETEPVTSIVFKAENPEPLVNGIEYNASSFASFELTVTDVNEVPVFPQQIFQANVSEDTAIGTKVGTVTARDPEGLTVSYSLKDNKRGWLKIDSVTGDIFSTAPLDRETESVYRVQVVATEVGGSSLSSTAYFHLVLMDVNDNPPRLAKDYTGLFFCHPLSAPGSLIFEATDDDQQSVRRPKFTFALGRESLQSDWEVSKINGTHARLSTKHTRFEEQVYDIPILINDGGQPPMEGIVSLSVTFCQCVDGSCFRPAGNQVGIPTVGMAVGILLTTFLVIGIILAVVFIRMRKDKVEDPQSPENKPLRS
Description: as §1

[13] = target: T3, human CDH17-mGFP fusion protein …; test: KinExA, cell-based, HEK293T overexpressing human CDH17-mGFP (FIG. 16)
Description: as §1

[14] = target: T4, rat CDH17 fused to moxGFP, …; test: KinExA, cell-based, HEK293T overexpressing rat CDH17 fusion (FIG. 16)
Description: as §1

[15] = target: T4, rat CDH17 fused to moxGFP, …; test: flow cytometry on HEK293T rat CDH17mGFP mass population, 20 µg/ml
[16] = target: T3, human CDH17-mGFP fusion protein …; test: KinExA, cell-based, HEK293T human CDH17mGFP G11 (same value as r12)
Description: as §1

[17] = target: T5, mouse CDH17-mGFP fusion protein overexpressed on HEK293T cells (mouse, UniProt Q9R100 26-827); test: flow cytometry on HEK293T mouse CDH17mGFP mass population, 20 µg/ml
T5 construct: also called HEK293T Mouse CDH17mGFP mass; not shown: mGFP fluorescent protein
T5 sequence (Q9R100 26-827): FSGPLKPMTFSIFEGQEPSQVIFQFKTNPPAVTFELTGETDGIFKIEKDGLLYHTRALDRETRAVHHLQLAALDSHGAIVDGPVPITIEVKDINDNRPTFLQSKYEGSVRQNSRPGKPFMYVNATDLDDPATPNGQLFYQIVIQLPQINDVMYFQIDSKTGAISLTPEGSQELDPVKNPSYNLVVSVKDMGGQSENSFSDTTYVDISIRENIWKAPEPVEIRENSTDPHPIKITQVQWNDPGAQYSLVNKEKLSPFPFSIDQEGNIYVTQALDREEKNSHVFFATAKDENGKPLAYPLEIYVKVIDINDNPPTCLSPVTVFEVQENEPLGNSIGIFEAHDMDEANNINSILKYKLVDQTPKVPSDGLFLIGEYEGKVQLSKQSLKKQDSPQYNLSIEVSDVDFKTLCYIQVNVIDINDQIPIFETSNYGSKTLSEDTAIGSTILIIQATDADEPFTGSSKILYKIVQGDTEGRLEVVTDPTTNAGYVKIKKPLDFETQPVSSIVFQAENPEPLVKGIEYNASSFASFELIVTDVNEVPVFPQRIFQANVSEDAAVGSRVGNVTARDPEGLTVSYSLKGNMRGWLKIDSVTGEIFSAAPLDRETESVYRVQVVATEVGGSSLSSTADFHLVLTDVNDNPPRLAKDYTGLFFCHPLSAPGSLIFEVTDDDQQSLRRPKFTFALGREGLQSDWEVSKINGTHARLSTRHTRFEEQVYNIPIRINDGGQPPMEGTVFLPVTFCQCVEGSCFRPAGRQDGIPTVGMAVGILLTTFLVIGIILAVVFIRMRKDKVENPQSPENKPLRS

[18] = target: T3, human CDH17-mGFP fusion protein …; test: flow cytometry (iQue) on HEK293T CDH17 mGFP clone G11 (human), 1 µg Ab
[19] = target: T3, human CDH17-mGFP fusion protein …; test: flow cytometry (iQue) on HEK293T CDH17 mGFP clone G11 (human), 0.2 µg Ab

B1: humanized anti-CDH17 antibody 07-0653-h43 (antibody, human IgG1, V domains shown)
VH: QVQLVQSGAEVKKPGASVKVSCKASGYTFTDYYMNWVRQAPGQGLEWMGVIYPYSGGIGYAQKFQGRVTMTVDKSTSTAYMELSSLRSEDTAVYYCARGRGDYFGLFDFWGQGTTVTVSS
VL: DIQLTQSPSSLSASVGDRVTITCRATSSLSYIHWYQQKPGKAPKPLIYEISKLASGVPSRFSGSGSGTDYTLTISSLQPEDFATYYCQQWNYPFTFGQGTKLEIK
notes: also called CDH17-653-h43
- Kd [1]: 0.206 nM
- EC50 [2]: 1.13 nM
- Antibody Binding Activity by Flow iQue [3]: 1.83e+06
- Antibody Binding Activity by Flow iQue [4]: 61400
- Kd [5]: 0.736 nM
- Antibody Binding Activity by Flow iQue [6]: 1.79e+06
- Antibody Binding Activity by Flow iQue [7]: 77200
- Antibody Binding Activity by Flow Cytometry [8]: 24300
- Antibody Binding Activity by Flow iQue [9]: 52200
- Antibody Binding Activity by Flow iQue [10]: 48100
- Cross Reactivity by Flow [11]: 51800
- Kd [12]: 0.535 nM
- Kd [13]: < 1 nM
- Kd [14]: < 1 nM
- Cross Reactivity by Flow [15]: 71800
- Kd [16]: 0.736 nM
- Cross Reactivity by Flow [17]: 2460
- Antibody Binding Activity by Flow iQue [18]: 191000
- Antibody Binding Activity by Flow iQue [19]: 51800

Source: patent publication US20250051437A1 (University of California, published 2025)
